In patent publication US20230365662A1 one finds OD450nm and Ratio OD(Variant)/OD(WT) data, which are given here for 19 molecules.

Several values for one entry are separate records, joined by “and”; a condition that tells them apart may be missing. Identical values can stand only once.

B1: KB001 mouse Fab VL S53K (Fab, V domains shown)
VH: EVQLKQSGPGLVAPSQSLSITCTVSGFSLSIYSVHWVRQPPGKGLEWLGMIWGGGSSDYNSALKSRLSISKDNSKSQVFLKMNSLQTDDTAMYYCARNGNFYAMDYWGQGTSVTVSS
VL: QIVLTQSPAIMSASLGERVTMTCTASSSVSSSFLHWYQQKPGSSPQLWIYSTKNLASGVPARFSGSGSGTSYSLTISSMEAEDAATYYCHQYHHSPYIYTFGGGTKLEIK
B2: KB001 mouse Fab VL N54R (Fab, V domains shown)
VH: EVQLKQSGPGLVAPSQSLSITCTVSGFSLSIYSVHWVRQPPGKGLEWLGMIWGGGSSDYNSALKSRLSISKDNSKSQVFLKMNSLQTDDTAMYYCARNGNFYAMDYWGQGTSVTVSS
VL: QIVLTQSPAIMSASLGERVTMTCTASSSVSSSFLHWYQQKPGSSPQLWIYSTSRLASGVPARFSGSGSGTSYSLTISSMEAEDAATYYCHQYHHSPYIYTFGGGTKLEIK
B3: KB001 mouse Fab VL L55N (Fab, V domains shown)
VH: EVQLKQSGPGLVAPSQSLSITCTVSGFSLSIYSVHWVRQPPGKGLEWLGMIWGGGSSDYNSALKSRLSISKDNSKSQVFLKMNSLQTDDTAMYYCARNGNFYAMDYWGQGTSVTVSS
VL: QIVLTQSPAIMSASLGERVTMTCTASSSVSSSFLHWYQQKPGSSPQLWIYSTSNNASGVPARFSGSGSGTSYSLTISSMEAEDAATYYCHQYHHSPYIYTFGGGTKLEIK
B4: KB001 mouse Fab VL T100Y (Fab, V domains shown)
VH: EVQLKQSGPGLVAPSQSLSITCTVSGFSLSIYSVHWVRQPPGKGLEWLGMIWGGGSSDYNSALKSRLSISKDNSKSQVFLKMNSLQTDDTAMYYCARNGNFYAMDYWGQGTSVTVSS
VL: QIVLTQSPAIMSASLGERVTMTCTASSSVSSSFLHWYQQKPGSSPQLWIYSTSNLASGVPARFSGSGSGTSYSLTISSMEAEDAATYYCHQYHHSPYIYYFGGGTKLEIK
B5: KB001 mouse Fab VL S57G (Fab, V domains shown)
VH: EVQLKQSGPGLVAPSQSLSITCTVSGFSLSIYSVHWVRQPPGKGLEWLGMIWGGGSSDYNSALKSRLSISKDNSKSQVFLKMNSLQTDDTAMYYCARNGNFYAMDYWGQGTSVTVSS
VL: QIVLTQSPAIMSASLGERVTMTCTASSSVSSSFLHWYQQKPGSSPQLWIYSTSNLAGGVPARFSGSGSGTSYSLTISSMEAEDAATYYCHQYHHSPYIYTFGGGTKLEIK
B6: KB001 mouse Fab VL H90W (Fab, V domains shown)
VH: EVQLKQSGPGLVAPSQSLSITCTVSGFSLSIYSVHWVRQPPGKGLEWLGMIWGGGSSDYNSALKSRLSISKDNSKSQVFLKMNSLQTDDTAMYYCARNGNFYAMDYWGQGTSVTVSS
VL: QIVLTQSPAIMSASLGERVTMTCTASSSVSSSFLHWYQQKPGSSPQLWIYSTSNLASGVPARFSGSGSGTSYSLTISSMEAEDAATYYCWQYHHSPYIYTFGGGTKLEIK
B7: KB001 mouse Fab VL L55P (Fab, V domains shown)
VH: EVQLKQSGPGLVAPSQSLSITCTVSGFSLSIYSVHWVRQPPGKGLEWLGMIWGGGSSDYNSALKSRLSISKDNSKSQVFLKMNSLQTDDTAMYYCARNGNFYAMDYWGQGTSVTVSS
VL: QIVLTQSPAIMSASLGERVTMTCTASSSVSSSFLHWYQQKPGSSPQLWIYSTSNPASGVPARFSGSGSGTSYSLTISSMEAEDAATYYCHQYHHSPYIYTFGGGTKLEIK
B8: KB001 mouse Fab VL S57P (Fab, V domains shown)
VH: EVQLKQSGPGLVAPSQSLSITCTVSGFSLSIYSVHWVRQPPGKGLEWLGMIWGGGSSDYNSALKSRLSISKDNSKSQVFLKMNSLQTDDTAMYYCARNGNFYAMDYWGQGTSVTVSS
VL: QIVLTQSPAIMSASLGERVTMTCTASSSVSSSFLHWYQQKPGSSPQLWIYSTSNLAPGVPARFSGSGSGTSYSLTISSMEAEDAATYYCHQYHHSPYIYTFGGGTKLEIK
B9: KB001 mouse Fab VL S57E (Fab, V domains shown)
VH: EVQLKQSGPGLVAPSQSLSITCTVSGFSLSIYSVHWVRQPPGKGLEWLGMIWGGGSSDYNSALKSRLSISKDNSKSQVFLKMNSLQTDDTAMYYCARNGNFYAMDYWGQGTSVTVSS
VL: QIVLTQSPAIMSASLGERVTMTCTASSSVSSSFLHWYQQKPGSSPQLWIYSTSNLAEGVPARFSGSGSGTSYSLTISSMEAEDAATYYCHQYHHSPYIYTFGGGTKLEIK
B10: KB001 mouse Fab VL T100Q (Fab, V domains shown)
VH: EVQLKQSGPGLVAPSQSLSITCTVSGFSLSIYSVHWVRQPPGKGLEWLGMIWGGGSSDYNSALKSRLSISKDNSKSQVFLKMNSLQTDDTAMYYCARNGNFYAMDYWGQGTSVTVSS
VL: QIVLTQSPAIMSASLGERVTMTCTASSSVSSSFLHWYQQKPGSSPQLWIYSTSNLASGVPARFSGSGSGTSYSLTISSMEAEDAATYYCHQYHHSPYIYQFGGGTKLEIK
B11: KB001 mouse Fab VL N54Q (Fab, V domains shown)
VH: EVQLKQSGPGLVAPSQSLSITCTVSGFSLSIYSVHWVRQPPGKGLEWLGMIWGGGSSDYNSALKSRLSISKDNSKSQVFLKMNSLQTDDTAMYYCARNGNFYAMDYWGQGTSVTVSS
VL: QIVLTQSPAIMSASLGERVTMTCTASSSVSSSFLHWYQQKPGSSPQLWIYSTSQLASGVPARFSGSGSGTSYSLTISSMEAEDAATYYCHQYHHSPYIYTFGGGTKLEIK
B12: KB001 mouse Fab VL Y97E (Fab, V domains shown)
VH: EVQLKQSGPGLVAPSQSLSITCTVSGFSLSIYSVHWVRQPPGKGLEWLGMIWGGGSSDYNSALKSRLSISKDNSKSQVFLKMNSLQTDDTAMYYCARNGNFYAMDYWGQGTSVTVSS
VL: QIVLTQSPAIMSASLGERVTMTCTASSSVSSSFLHWYQQKPGSSPQLWIYSTSNLASGVPARFSGSGSGTSYSLTISSMEAEDAATYYCHQYHHSPEIYTFGGGTKLEIK
B13: KB001 mouse Fab VL T100G (Fab, V domains shown)
VH: EVQLKQSGPGLVAPSQSLSITCTVSGFSLSIYSVHWVRQPPGKGLEWLGMIWGGGSSDYNSALKSRLSISKDNSKSQVFLKMNSLQTDDTAMYYCARNGNFYAMDYWGQGTSVTVSS
VL: QIVLTQSPAIMSASLGERVTMTCTASSSVSSSFLHWYQQKPGSSPQLWIYSTSNLASGVPARFSGSGSGTSYSLTISSMEAEDAATYYCHQYHHSPYIYGFGGGTKLEIK
B14: KB001 mouse Fab VL S57T (Fab, V domains shown)
VH: EVQLKQSGPGLVAPSQSLSITCTVSGFSLSIYSVHWVRQPPGKGLEWLGMIWGGGSSDYNSALKSRLSISKDNSKSQVFLKMNSLQTDDTAMYYCARNGNFYAMDYWGQGTSVTVSS
VL: QIVLTQSPAIMSASLGERVTMTCTASSSVSSSFLHWYQQKPGSSPQLWIYSTSNLATGVPARFSGSGSGTSYSLTISSMEAEDAATYYCHQYHHSPYIYTFGGGTKLEIK
B15: KB001 mouse Fab VL S57Q (Fab, V domains shown)
VH: EVQLKQSGPGLVAPSQSLSITCTVSGFSLSIYSVHWVRQPPGKGLEWLGMIWGGGSSDYNSALKSRLSISKDNSKSQVFLKMNSLQTDDTAMYYCARNGNFYAMDYWGQGTSVTVSS
VL: QIVLTQSPAIMSASLGERVTMTCTASSSVSSSFLHWYQQKPGSSPQLWIYSTSNLAQGVPARFSGSGSGTSYSLTISSMEAEDAATYYCHQYHHSPYIYTFGGGTKLEIK
B16: KB001 mouse Fab VL S95Q (Fab, V domains shown)
VH: EVQLKQSGPGLVAPSQSLSITCTVSGFSLSIYSVHWVRQPPGKGLEWLGMIWGGGSSDYNSALKSRLSISKDNSKSQVFLKMNSLQTDDTAMYYCARNGNFYAMDYWGQGTSVTVSS
VL: QIVLTQSPAIMSASLGERVTMTCTASSSVSSSFLHWYQQKPGSSPQLWIYSTSNLASGVPARFSGSGSGTSYSLTISSMEAEDAATYYCHQYHHQPYIYTFGGGTKLEIK
B17: KB001 mouse Fab VL S57N (Fab, V domains shown)
VH: EVQLKQSGPGLVAPSQSLSITCTVSGFSLSIYSVHWVRQPPGKGLEWLGMIWGGGSSDYNSALKSRLSISKDNSKSQVFLKMNSLQTDDTAMYYCARNGNFYAMDYWGQGTSVTVSS
VL: QIVLTQSPAIMSASLGERVTMTCTASSSVSSSFLHWYQQKPGSSPQLWIYSTSNLANGVPARFSGSGSGTSYSLTISSMEAEDAATYYCHQYHHSPYIYTFGGGTKLEIK
B18: KB001 mouse Fab VL N54S (Fab, V domains shown)
VH: EVQLKQSGPGLVAPSQSLSITCTVSGFSLSIYSVHWVRQPPGKGLEWLGMIWGGGSSDYNSALKSRLSISKDNSKSQVFLKMNSLQTDDTAMYYCARNGNFYAMDYWGQGTSVTVSS
VL: QIVLTQSPAIMSASLGERVTMTCTASSSVSSSFLHWYQQKPGSSPQLWIYSTSSLASGVPARFSGSGSGTSYSLTISSMEAEDAATYYCHQYHHSPYIYTFGGGTKLEIK
B19: KB001 mouse Fab VL S57R (Fab, V domains shown)
VH: EVQLKQSGPGLVAPSQSLSITCTVSGFSLSIYSVHWVRQPPGKGLEWLGMIWGGGSSDYNSALKSRLSISKDNSKSQVFLKMNSLQTDDTAMYYCARNGNFYAMDYWGQGTSVTVSS
VL: QIVLTQSPAIMSASLGERVTMTCTASSSVSSSFLHWYQQKPGSSPQLWIYSTSNLARGVPARFSGSGSGTSYSLTISSMEAEDAATYYCHQYHHSPYIYTFGGGTKLEIK

In this test the target is HRgpA-6H (Porphyromonas gingivalis) (UniProt P28784). Description: ELISA, FASEBA Fab on coated HRgpA-6H. (In general: In an ELISA, binding on a coated surface is turned into a signal by an enzyme label.)
UniProt P28784, sequence (P28784 228-991): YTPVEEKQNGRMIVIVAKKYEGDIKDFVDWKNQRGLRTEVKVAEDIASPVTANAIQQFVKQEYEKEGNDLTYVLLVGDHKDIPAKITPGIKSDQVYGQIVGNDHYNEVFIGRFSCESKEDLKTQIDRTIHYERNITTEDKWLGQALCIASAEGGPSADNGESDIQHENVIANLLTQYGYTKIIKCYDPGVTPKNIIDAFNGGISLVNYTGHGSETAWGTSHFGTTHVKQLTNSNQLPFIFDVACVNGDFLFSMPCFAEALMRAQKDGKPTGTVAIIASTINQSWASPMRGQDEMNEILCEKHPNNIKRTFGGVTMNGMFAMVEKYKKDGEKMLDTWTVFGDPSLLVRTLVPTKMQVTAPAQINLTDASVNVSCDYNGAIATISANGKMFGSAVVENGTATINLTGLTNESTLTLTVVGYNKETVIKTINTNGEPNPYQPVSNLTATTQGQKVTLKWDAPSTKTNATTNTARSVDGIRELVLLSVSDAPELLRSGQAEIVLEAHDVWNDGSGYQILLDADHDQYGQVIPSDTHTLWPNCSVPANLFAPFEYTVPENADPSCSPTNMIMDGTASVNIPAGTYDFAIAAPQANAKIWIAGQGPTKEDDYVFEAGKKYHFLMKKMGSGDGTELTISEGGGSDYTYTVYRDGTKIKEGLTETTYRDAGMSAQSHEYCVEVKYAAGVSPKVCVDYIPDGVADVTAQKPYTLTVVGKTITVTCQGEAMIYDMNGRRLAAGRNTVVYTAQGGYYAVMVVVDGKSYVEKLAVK
With B1, the OD450nm was 0.841 and the Ratio OD(Variant)/OD(WT) was determined as 1.07.

For the molecule B2, the OD450nm was 0.876 and the Ratio OD(Variant)/OD(WT) amounted to 1.12.

For B3, the OD450nm was 0.816 and 0.815 and 0.777; the Ratio OD(Variant)/OD(WT) was 1.04 (2×) and 0.992.

Consider B4, for which the OD450nm stood at 0.546 and the Ratio OD(Variant)/OD(WT) is 1.04.

In the case of B5, the OD450nm is 0.873 and 0.825; the Ratio OD(Variant)/OD(WT) is 1.07 and 1.01.

Take B6: the OD450nm came out at 0.913 and the Ratio OD(Variant)/OD(WT) is 1.06.

Consider B7, for which the OD450nm is 0.827 and 0.764 and 0.724; the Ratio OD(Variant)/OD(WT) was 1.06 and 0.975 and 0.924.

Take B8: the OD450nm was found to be 0.858 and the Ratio OD(Variant)/OD(WT) is 1.05.

In the case of B9, the OD450nm came out at 0.843 and the Ratio OD(Variant)/OD(WT) stood at 1.03.

B10: the OD450nm was 0.586 and 0.596 and 0.604; the Ratio OD(Variant)/OD(WT) is 1.12 and 1.14 and 1.15.

For B11, the OD450nm stood at 0.868 and the Ratio OD(Variant)/OD(WT) came to 1.11.

As to B12, the OD450nm turned out to be 0.793 and the Ratio OD(Variant)/OD(WT) is 1.

For B13, the OD450nm is 0.603 and 0.597; the Ratio OD(Variant)/OD(WT) is 1.15 and 1.14.

For the molecule B14, the OD450nm worked out at 0.843 and the Ratio OD(Variant)/OD(WT) is 1.03.

For B15, the OD450nm is 0.858 and 0.838; the Ratio OD(Variant)/OD(WT) is 1.05 and 1.03.

For B16, the OD450nm is 0.931 and 0.936 and 0.927; the Ratio OD(Variant)/OD(WT) was 1.01 (2×) and 1.02.

On to B17, for which the OD450nm stood at 0.857 and the Ratio OD(Variant)/OD(WT) was 1.05.

Consider B18, for which the OD450nm is 0.835 and 0.732 and 0.776; the Ratio OD(Variant)/OD(WT) was 1.07 and 0.934 and 0.99.

As to B19, the OD450nm was 0.845 and 0.849; the Ratio OD(Variant)/OD(WT) was 1.04.
